The source of these data is publication PMC5461267, “Membrane Guanylate Cyclase catalytic Subdomain: Structure and Linkage with Calcium Sensors and Bicarbonate” (Frontiers in Molecular Neuroscience, 2017).

Substrate in this series: Nc1nc2c(ncn2[C@@H]2O[C@H](COP(=O)(O)OP(=O)(O)OP(=O)(O)O)[C@@H](O)[C@H]2O)c(=O)[nH]1
Nature of the series: cyclic GMP radioimmunoassay, COS cell membranes; Hill fit. In kind it is biochemical, Bos taurus. As to conditions: constant Mg2+, GTP 0-3 mM, pH 7.5, 37 °C, half-maximal concentration from Hill equation.

B1: ROS-GC1 (rod outer segment guanylate cyclase type 1), full-length recombinant (Bos taurus; A1013R) (protein)
chain: AVFTVGVLGPWACDPIFARARPDLAARLAASRLNHAAALEGGPRFEVALLPEPCRTPGSLGAVSSALTRVSGLVGPVNPAACRPAELLAQEAGVALVPWGCPGTRAAGTTAPVVTPAADALYALLRAFRWAHVALVTAPQDLWVEAGHALSTALRARGLPVALVTSMEPSDLSGAREALRRVQDGPRVRAVIMVMHSVLLGGEEQRCLLEAAEELGLADGSLVFLPFDTLHYALSPGPDALAVLANSSQLRKAHDAVLTLTRHCPLGGSVRDSLRRAQEHRELPLDLNLQQVSPLFGTIYDSVFLLAGGVARARVAAGGGWVSGAAVARHIRDARVPGFCGALGGAEEPSFVLLDTDATGDQLFATYVLDPTQGFFHSAGTPVHFPKGGRGPGPDPSCWFDPDTICNGGVEPSVVFIGFLLVVGMGLAGAFLAHYCRHRLLHIQMVSGPNKIILTLDDITFLHPHGGNSRKVAQGSRTSLAARSISDVRSIHSQLPDYTNIGLYEGDWVWLKKFPGDRHIAIRPATKMAFSKIRELRHENVALYLGLFLAGGAGGPAAPGEGVLAVVSEHCARGSLQDLLAQRDIKLDWMFKSSLLLDLIKGIRYLHHRGVAHGRLKSRNCVVDGRFVLKVTDHGHGRLLEAQRVLPEPPSAEDQLWTAPELLRDPVLERRGTLAGDVFSLGIIMQEVVCRSAPYAMLELTPEEVVKRVQSPPPLCRPSVSIDQAPMECIQLMKQCWAEQPELRPSMDRTFELFKSINKGRKMNIIDSMLRMLEQYSSNLEDLIRERTEELELEKQKTDRLLTQMLPPSVAEALKMGTPVEPEYFEEVTLYFSDIVGFTTISAMSEPIEVVDLLNDLYTLFDAIIGSHDVYKVETIGDAYMVASGLPQRNGHRHAAEIANMALDILSAVGTFRMRHMPEVPVRIRIGLHSGPCVAGVVGLTMPRYCLFGDTVNTASRMESTGLPYRIHVNRSTVQILSALNEGFLTEVRGRTELKGKGAEETYWLVGRRGFNKPIPKPPDLQPGASNHGISLHEIPPDRRQKLEKARPGQFSGK
notes: full-length wild-type cDNA expressed in COS-7 cells; membrane fraction assayed; homodimer
With B1, the Km (usually the concentration of substrate that gives half-maximal velocity) came to 450 ± 20 µM.

B2: ROS-GC1 (rod outer segment guanylate cyclase type 1), full-length recombinant (Bos taurus; A1013R/E930A) (protein)
chain: AVFTVGVLGPWACDPIFARARPDLAARLAASRLNHAAALEGGPRFEVALLPEPCRTPGSLGAVSSALTRVSGLVGPVNPAACRPAELLAQEAGVALVPWGCPGTRAAGTTAPVVTPAADALYALLRAFRWAHVALVTAPQDLWVEAGHALSTALRARGLPVALVTSMEPSDLSGAREALRRVQDGPRVRAVIMVMHSVLLGGEEQRCLLEAAEELGLADGSLVFLPFDTLHYALSPGPDALAVLANSSQLRKAHDAVLTLTRHCPLGGSVRDSLRRAQEHRELPLDLNLQQVSPLFGTIYDSVFLLAGGVARARVAAGGGWVSGAAVARHIRDARVPGFCGALGGAEEPSFVLLDTDATGDQLFATYVLDPTQGFFHSAGTPVHFPKGGRGPGPDPSCWFDPDTICNGGVEPSVVFIGFLLVVGMGLAGAFLAHYCRHRLLHIQMVSGPNKIILTLDDITFLHPHGGNSRKVAQGSRTSLAARSISDVRSIHSQLPDYTNIGLYEGDWVWLKKFPGDRHIAIRPATKMAFSKIRELRHENVALYLGLFLAGGAGGPAAPGEGVLAVVSEHCARGSLQDLLAQRDIKLDWMFKSSLLLDLIKGIRYLHHRGVAHGRLKSRNCVVDGRFVLKVTDHGHGRLLEAQRVLPEPPSAEDQLWTAPELLRDPVLERRGTLAGDVFSLGIIMQEVVCRSAPYAMLELTPEEVVKRVQSPPPLCRPSVSIDQAPMECIQLMKQCWAEQPELRPSMDRTFELFKSINKGRKMNIIDSMLRMLEQYSSNLEDLIRERTEELELEKQKTDRLLTQMLPPSVAEALKMGTPVEPEYFEEVTLYFSDIVGFTTISAMSEPIEVVDLLNDLYTLFDAIIGSHDVYKVATIGDAYMVASGLPQRNGHRHAAEIANMALDILSAVGTFRMRHMPEVPVRIRIGLHSGPCVAGVVGLTMPRYCLFGDTVNTASRMESTGLPYRIHVNRSTVQILSALNEGFLTEVRGRTELKGKGAEETYWLVGRRGFNKPIPKPPDLQPGASNHGISLHEIPPDRRQKLEKARPGQFSGK
notes: as for B1
Regarding B2, the Km was determined as 530 ± 30 µM.

B3: ROS-GC1 (rod outer segment guanylate cyclase type 1), full-length recombinant (Bos taurus; A1013R/D934A) (protein)
chain: AVFTVGVLGPWACDPIFARARPDLAARLAASRLNHAAALEGGPRFEVALLPEPCRTPGSLGAVSSALTRVSGLVGPVNPAACRPAELLAQEAGVALVPWGCPGTRAAGTTAPVVTPAADALYALLRAFRWAHVALVTAPQDLWVEAGHALSTALRARGLPVALVTSMEPSDLSGAREALRRVQDGPRVRAVIMVMHSVLLGGEEQRCLLEAAEELGLADGSLVFLPFDTLHYALSPGPDALAVLANSSQLRKAHDAVLTLTRHCPLGGSVRDSLRRAQEHRELPLDLNLQQVSPLFGTIYDSVFLLAGGVARARVAAGGGWVSGAAVARHIRDARVPGFCGALGGAEEPSFVLLDTDATGDQLFATYVLDPTQGFFHSAGTPVHFPKGGRGPGPDPSCWFDPDTICNGGVEPSVVFIGFLLVVGMGLAGAFLAHYCRHRLLHIQMVSGPNKIILTLDDITFLHPHGGNSRKVAQGSRTSLAARSISDVRSIHSQLPDYTNIGLYEGDWVWLKKFPGDRHIAIRPATKMAFSKIRELRHENVALYLGLFLAGGAGGPAAPGEGVLAVVSEHCARGSLQDLLAQRDIKLDWMFKSSLLLDLIKGIRYLHHRGVAHGRLKSRNCVVDGRFVLKVTDHGHGRLLEAQRVLPEPPSAEDQLWTAPELLRDPVLERRGTLAGDVFSLGIIMQEVVCRSAPYAMLELTPEEVVKRVQSPPPLCRPSVSIDQAPMECIQLMKQCWAEQPELRPSMDRTFELFKSINKGRKMNIIDSMLRMLEQYSSNLEDLIRERTEELELEKQKTDRLLTQMLPPSVAEALKMGTPVEPEYFEEVTLYFSDIVGFTTISAMSEPIEVVDLLNDLYTLFDAIIGSHDVYKVETIGAAYMVASGLPQRNGHRHAAEIANMALDILSAVGTFRMRHMPEVPVRIRIGLHSGPCVAGVVGLTMPRYCLFGDTVNTASRMESTGLPYRIHVNRSTVQILSALNEGFLTEVRGRTELKGKGAEETYWLVGRRGFNKPIPKPPDLQPGASNHGISLHEIPPDRRQKLEKARPGQFSGK
notes: as for B1
Take B3: the Km came to 480 ± 40 µM.

B4: ROS-GC1 (rod outer segment guanylate cyclase type 1), full-length recombinant (Bos taurus; A1013R/R981A) (protein)
chain: AVFTVGVLGPWACDPIFARARPDLAARLAASRLNHAAALEGGPRFEVALLPEPCRTPGSLGAVSSALTRVSGLVGPVNPAACRPAELLAQEAGVALVPWGCPGTRAAGTTAPVVTPAADALYALLRAFRWAHVALVTAPQDLWVEAGHALSTALRARGLPVALVTSMEPSDLSGAREALRRVQDGPRVRAVIMVMHSVLLGGEEQRCLLEAAEELGLADGSLVFLPFDTLHYALSPGPDALAVLANSSQLRKAHDAVLTLTRHCPLGGSVRDSLRRAQEHRELPLDLNLQQVSPLFGTIYDSVFLLAGGVARARVAAGGGWVSGAAVARHIRDARVPGFCGALGGAEEPSFVLLDTDATGDQLFATYVLDPTQGFFHSAGTPVHFPKGGRGPGPDPSCWFDPDTICNGGVEPSVVFIGFLLVVGMGLAGAFLAHYCRHRLLHIQMVSGPNKIILTLDDITFLHPHGGNSRKVAQGSRTSLAARSISDVRSIHSQLPDYTNIGLYEGDWVWLKKFPGDRHIAIRPATKMAFSKIRELRHENVALYLGLFLAGGAGGPAAPGEGVLAVVSEHCARGSLQDLLAQRDIKLDWMFKSSLLLDLIKGIRYLHHRGVAHGRLKSRNCVVDGRFVLKVTDHGHGRLLEAQRVLPEPPSAEDQLWTAPELLRDPVLERRGTLAGDVFSLGIIMQEVVCRSAPYAMLELTPEEVVKRVQSPPPLCRPSVSIDQAPMECIQLMKQCWAEQPELRPSMDRTFELFKSINKGRKMNIIDSMLRMLEQYSSNLEDLIRERTEELELEKQKTDRLLTQMLPPSVAEALKMGTPVEPEYFEEVTLYFSDIVGFTTISAMSEPIEVVDLLNDLYTLFDAIIGSHDVYKVETIGDAYMVASGLPQRNGHRHAAEIANMALDILSAVGTFRMRHMPEVPVRIAIGLHSGPCVAGVVGLTMPRYCLFGDTVNTASRMESTGLPYRIHVNRSTVQILSALNEGFLTEVRGRTELKGKGAEETYWLVGRRGFNKPIPKPPDLQPGASNHGISLHEIPPDRRQKLEKARPGQFSGK
notes: as for B1
For the protein B4, the Km was determined as 520 ± 30 µM.

B5: ROS-GC1 (rod outer segment guanylate cyclase type 1), full-length recombinant (Bos taurus; A1013R/D890A) (protein)
chain: AVFTVGVLGPWACDPIFARARPDLAARLAASRLNHAAALEGGPRFEVALLPEPCRTPGSLGAVSSALTRVSGLVGPVNPAACRPAELLAQEAGVALVPWGCPGTRAAGTTAPVVTPAADALYALLRAFRWAHVALVTAPQDLWVEAGHALSTALRARGLPVALVTSMEPSDLSGAREALRRVQDGPRVRAVIMVMHSVLLGGEEQRCLLEAAEELGLADGSLVFLPFDTLHYALSPGPDALAVLANSSQLRKAHDAVLTLTRHCPLGGSVRDSLRRAQEHRELPLDLNLQQVSPLFGTIYDSVFLLAGGVARARVAAGGGWVSGAAVARHIRDARVPGFCGALGGAEEPSFVLLDTDATGDQLFATYVLDPTQGFFHSAGTPVHFPKGGRGPGPDPSCWFDPDTICNGGVEPSVVFIGFLLVVGMGLAGAFLAHYCRHRLLHIQMVSGPNKIILTLDDITFLHPHGGNSRKVAQGSRTSLAARSISDVRSIHSQLPDYTNIGLYEGDWVWLKKFPGDRHIAIRPATKMAFSKIRELRHENVALYLGLFLAGGAGGPAAPGEGVLAVVSEHCARGSLQDLLAQRDIKLDWMFKSSLLLDLIKGIRYLHHRGVAHGRLKSRNCVVDGRFVLKVTDHGHGRLLEAQRVLPEPPSAEDQLWTAPELLRDPVLERRGTLAGDVFSLGIIMQEVVCRSAPYAMLELTPEEVVKRVQSPPPLCRPSVSIDQAPMECIQLMKQCWAEQPELRPSMDRTFELFKSINKGRKMNIIDSMLRMLEQYSSNLEDLIRERTEELELEKQKTDRLLTQMLPPSVAEALKMGTPVEPEYFEEVTLYFSAIVGFTTISAMSEPIEVVDLLNDLYTLFDAIIGSHDVYKVETIGDAYMVASGLPQRNGHRHAAEIANMALDILSAVGTFRMRHMPEVPVRIRIGLHSGPCVAGVVGLTMPRYCLFGDTVNTASRMESTGLPYRIHVNRSTVQILSALNEGFLTEVRGRTELKGKGAEETYWLVGRRGFNKPIPKPPDLQPGASNHGISLHEIPPDRRQKLEKARPGQFSGK
notes: as for B1
On to B5, for which the Km worked out at 560 ± 30 µM.
